# From PMC6872632, “BIK1 and ERECTA Play Opposing Roles in Both Leaf and Inflorescence Development in Arabidopsis” (Frontiers in Plant Science, 2019)
# T1: BOTRYTIS-INDUCED KINASE1 (BIK1), His-tagged recombinant protein (Arabidopsis thaliana, UniProt O48814 1-395)
# T1 construct: BOTRYTIS-INDUCED KINASE1 (BIK1), Arabidopsis thaliana, full-length ORF cloned into pET-28; source: E. coli BL21, purified (Ni-Sepharose beads)
# T1 sequence (looked up): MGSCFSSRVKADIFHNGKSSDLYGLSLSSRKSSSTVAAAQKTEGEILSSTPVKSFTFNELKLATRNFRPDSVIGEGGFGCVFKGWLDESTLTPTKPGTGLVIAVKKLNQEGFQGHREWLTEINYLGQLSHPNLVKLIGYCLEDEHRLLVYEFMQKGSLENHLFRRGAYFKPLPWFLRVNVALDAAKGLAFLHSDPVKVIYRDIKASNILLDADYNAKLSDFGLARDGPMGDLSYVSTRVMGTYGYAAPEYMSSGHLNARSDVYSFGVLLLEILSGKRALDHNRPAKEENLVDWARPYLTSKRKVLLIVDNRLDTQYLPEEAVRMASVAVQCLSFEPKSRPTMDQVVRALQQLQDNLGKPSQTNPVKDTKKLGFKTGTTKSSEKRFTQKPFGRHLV
# B1: ERL2 cytoplasmic domain, GST-tagged recombinant protein (domain or fragment, Arabidopsis thaliana, UniProt Q6XAT2 607-967, looked up)
# chain: YKSKQQKPVLKGSSKQPEGSTKLVILHMDMAIHTFDDIMRVTENLDEKYIIGYGASSTVYKCTSKTSRPIAIKRIYNQYPSNFREFETELETIGSIRHRNIVSLHGYALSPFGNLLFYDYMENGSLWDLLHGPGKKVKLDWETRLKIAVGAAQGLAYLHHDCTPRIIHRDIKSSNILLDGNFEARLSDFGIAKSIPATKTYASTYVLGTIGYIDPEYARTSRLNEKSDIYSFGIVLLELLTGKKAVDNEANLHQMILSKADDNTVMEAVDAEVSVTCMDSGHIKKTFQLALLCTKRNPLERPTMQEVSRVLLSLVPSPPPKKLPSPAKVQEGEERRESHSSDTTTPQWFVQFREDISKSSL
# notes: ERL2 (ER-LIKE2), Arabidopsis thaliana, truncated to the cytoplasmic domain (CD), in pGEX-4T-1; also called GST-ERL2-CD; source: E. coli BL21, purified (Glutathione Sepharose beads)
# B2: ER-LIKE1 (ERL1) cytoplasmic domain, GST-tagged recombinant protein (domain or fragment, Arabidopsis thaliana, UniProt C0LGW6 604-966, looked up)
# chain: YKSMQQKKILQGSSKQAEGLTKLVILHMDMAIHTFDDIMRVTENLNEKFIIGYGASSTVYKCALKSSRPIAIKRLYNQYPHNLREFETELETIGSIRHRNIVSLHGYALSPTGNLLFYDYMENGSLWDLLHGSLKKVKLDWETRLKIAVGAAQGLAYLHHDCTPRIIHRDIKSSNILLDENFEAHLSDFGIAKSIPASKTHASTYVLGTIGYIDPEYARTSRINEKSDIYSFGIVLLELLTGKKAVDNEANLHQLILSKADDNTVMEAVDPEVTVTCMDLGHIRKTFQLALLCTKRNPLERPTMLEVSRVLLSLVPSLQVAKKLPSLDHSTKKLQQENEVRNPDAEASQWFVQFREVISKSSI
# notes: ER-LIKE1 (ERL1), Arabidopsis thaliana, truncated to the cytoplasmic domain (CD), in pGEX-4T-1; also called GST-ERL1-CD; source: E. coli BL21, purified (Glutathione Sepharose beads)
# B3: ERECTA (ER) cytoplasmic domain, GST-tagged recombinant protein (domain or fragment, Arabidopsis thaliana, UniProt Q42371 602-976, looked up)
# chain: CRPHNPPPFLDGSLDKPVTYSTPKLVILHMNMALHVYEDIMRMTENLSEKYIIGHGASSTVYKCVLKNCKPVAIKRLYSHNPQSMKQFETELEMLSSIKHRNLVSLQAYSLSHLGSLLFYDYLENGSLWDLLHGPTKKKTLDWDTRLKIAYGAAQGLAYLHHDCSPRIIHRDVKSSNILLDKDLEARLTDFGIAKSLCVSKSHTSTYVMGTIGYIDPEYARTSRLTEKSDVYSYGIVLLELLTRRKAVDDESNLHHLIMSKTGNNEVMEMADPDITSTCKDLGVVKKVFQLALLCTKRQPNDRPTMHQVTRVLGSFMLSEQPPAATDTSATLAGSCYVDEYANLKTPHSVNCSSMSASDAQLFLRFGQVISQNSE
# notes: ERECTA (ER), Arabidopsis thaliana, truncated to the cytoplasmic domain (CD), in pGEX-4T-1; also called GST-ER-CD; ER-CD; source: E. coli BL21, purified (Glutathione Sepharose beads)
# Molecular target: T1, BOTRYTIS-INDUCED KINASE1 (BIK1), …
# Experiment: pull-down; 10 µg BIK1-His and 10 µg GST-ER/ERL1/ERL2-CD or GST with glutathione agarose beads, 25 mM Tris-HCl pH 7.5, 150 mM NaCl, 1 mM DTT, 3 h; eluted with 30 mM glutathione; BIK1-His detected with anti-His antibody
# Conditions: both partners purified
row,Binder,binding result
1,B1,binds
2,B2,binds
3,B3,binds
